Assay results taken from article PMC2606909 (Molecular pharmacology, 2008).

Molecular target: purified bovine arrestin3 (bovine, UniProt P32120 1-420)
Test: pull-down

Sequence of purified bovine arrestin3 (P32120 whole entry): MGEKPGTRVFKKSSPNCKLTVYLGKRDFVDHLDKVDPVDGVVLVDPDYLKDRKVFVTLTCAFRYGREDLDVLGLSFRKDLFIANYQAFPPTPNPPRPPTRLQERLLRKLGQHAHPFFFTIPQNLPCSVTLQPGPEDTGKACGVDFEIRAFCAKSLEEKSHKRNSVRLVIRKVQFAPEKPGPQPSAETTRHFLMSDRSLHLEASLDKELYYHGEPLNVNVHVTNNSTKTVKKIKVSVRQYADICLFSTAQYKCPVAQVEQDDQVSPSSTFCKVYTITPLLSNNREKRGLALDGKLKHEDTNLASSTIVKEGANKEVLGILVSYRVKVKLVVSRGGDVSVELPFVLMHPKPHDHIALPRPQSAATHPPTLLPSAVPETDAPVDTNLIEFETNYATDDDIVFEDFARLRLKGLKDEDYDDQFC

Q: With SIDRYTAVAMPMLYNTRYSSKRRVT (domain or fragment, rat, UniProt P61169 129-153, looked up) [GST-D2-IC2] as the binder, how does the Kd read?
A: 242 nM

Q: Which Kd does the source give for SIDRYTAVVMPVHYQHGTGQSSCRRVA (domain or fragment, rat, UniProt P19020 125-151, looked up) [GST-D3-IC2] here?
A: 1100 nM
